# In patent US20220127354A1 (Amgen, published 2022):
# B1: anti-CDH19 antibody 2G6 (Ab ID 13588) (antibody, human IgG1, lambda, V domains shown)
# VH: QVQLVESGGGVVQPGRSLRLSCAASGFTFSSYGMHWVRQAPGKGLEWVAFIWYDGSNKYYADSVKDRFTISRDNSKNTLYLQMKSLRAEDTAVYYCARRAGIIGTIGYYYGMDVWGQGTTVTVSS
# VL: SYELTQPPSVSVSPGQTASITCSGDRLGEKYTCWYQQRPGQSPLLVIYQDTKRPSGIPERFSGSNSGNTATLTISGTQAMDEADYYCQAWDSSTVVFGGGTKLTVLG
# notes: Bin 4
# Biological target: T1, muCDH19(44-461)::huCDH19(464-772) with Flag tag (construct H, Hu EC5) (human/mouse chimera)
# T1 construct: leader left out; the entry starts at residue 44; also called C137915
# T1 chain: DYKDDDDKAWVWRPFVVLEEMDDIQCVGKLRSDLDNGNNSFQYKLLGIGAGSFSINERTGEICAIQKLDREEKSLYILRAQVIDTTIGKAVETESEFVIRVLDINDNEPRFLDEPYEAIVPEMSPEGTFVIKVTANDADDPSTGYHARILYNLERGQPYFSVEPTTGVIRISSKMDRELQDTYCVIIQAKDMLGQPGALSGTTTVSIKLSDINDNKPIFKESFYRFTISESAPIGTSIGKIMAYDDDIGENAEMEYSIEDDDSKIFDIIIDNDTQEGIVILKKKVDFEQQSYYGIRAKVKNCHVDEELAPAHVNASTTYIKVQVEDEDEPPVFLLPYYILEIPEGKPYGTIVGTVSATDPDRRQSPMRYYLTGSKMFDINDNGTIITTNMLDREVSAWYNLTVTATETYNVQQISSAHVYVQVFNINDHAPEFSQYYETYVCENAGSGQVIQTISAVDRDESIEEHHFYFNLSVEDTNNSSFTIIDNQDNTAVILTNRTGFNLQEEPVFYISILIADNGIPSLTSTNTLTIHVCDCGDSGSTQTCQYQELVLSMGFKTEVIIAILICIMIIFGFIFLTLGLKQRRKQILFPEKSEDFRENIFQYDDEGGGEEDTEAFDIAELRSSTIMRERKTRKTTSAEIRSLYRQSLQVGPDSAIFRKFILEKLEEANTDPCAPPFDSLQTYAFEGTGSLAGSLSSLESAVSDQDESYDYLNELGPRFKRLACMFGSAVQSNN
# Experiment: flow cytometry, transfected 293T cells
# Excerpt: The experiment included assaying the anti-CDH19 antibodies against mouse Cadherin19 to determine suitability for binning on these human/mouse chimeras.
binder,measurement,value
B1,binding result,binds
